{"source": "patent US11162953B2", "about": "“Protein binding domains stabilizing functional conformational states of GPCRS and uses thereof” (priority 2010, dated 2021)", "key": {"[1]": {"test_system": "β2AR-T4L", "assay": "[3H]-DHA competition binding on β2AR-T4L reconstituted in HDL particles, with or without Nb80", "design": "species or system human", "details": "β2AR-T4L/HDL + Nb80 versus alone"}, "[2]": {"target": "T1, β2AR-T4L (Homo sapiens, UniProt P07550, DEL231-262, form not given)", "T1 construct": "The β2AR and β2AR-T4L (both truncated at position 365) purified as previously described (Rosenbaum et al. 2007); fused on or other part: T4 lysozyme inserted in place of the third intracellular loop between TM5 and TM6 as a crystallisation handle (published construct: residues 2-161, C54T/C97A); Reconstituted in HDL particles", "assay": "[3H]-DHA competition binding on β2AR-T4L reconstituted in HDL particles, with or without Nb80", "details": "β2AR-T4L/HDL"}, "[3]": {"target": "dopamine D1 receptor (Homo sapiens, UniProt P21728)", "sequence (P21728 whole entry, species assumed)": "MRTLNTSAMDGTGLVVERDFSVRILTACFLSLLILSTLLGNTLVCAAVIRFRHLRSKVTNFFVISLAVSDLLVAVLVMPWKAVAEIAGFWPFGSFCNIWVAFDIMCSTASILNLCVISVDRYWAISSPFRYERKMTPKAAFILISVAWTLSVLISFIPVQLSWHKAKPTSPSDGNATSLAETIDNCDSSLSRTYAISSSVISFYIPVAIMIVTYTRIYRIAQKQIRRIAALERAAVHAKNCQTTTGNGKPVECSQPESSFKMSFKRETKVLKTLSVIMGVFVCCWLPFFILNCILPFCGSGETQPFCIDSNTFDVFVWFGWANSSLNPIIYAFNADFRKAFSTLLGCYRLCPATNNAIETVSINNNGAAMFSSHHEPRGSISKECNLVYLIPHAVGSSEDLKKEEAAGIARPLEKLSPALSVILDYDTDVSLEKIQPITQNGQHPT", "assay": "Effect of Nb80 on unrelated receptor", "format": "binding", "details": "data not shown"}, "[4]": {"target": "human β1AR (Homo sapiens, UniProt P08588)", "sequence (P08588 whole entry)": "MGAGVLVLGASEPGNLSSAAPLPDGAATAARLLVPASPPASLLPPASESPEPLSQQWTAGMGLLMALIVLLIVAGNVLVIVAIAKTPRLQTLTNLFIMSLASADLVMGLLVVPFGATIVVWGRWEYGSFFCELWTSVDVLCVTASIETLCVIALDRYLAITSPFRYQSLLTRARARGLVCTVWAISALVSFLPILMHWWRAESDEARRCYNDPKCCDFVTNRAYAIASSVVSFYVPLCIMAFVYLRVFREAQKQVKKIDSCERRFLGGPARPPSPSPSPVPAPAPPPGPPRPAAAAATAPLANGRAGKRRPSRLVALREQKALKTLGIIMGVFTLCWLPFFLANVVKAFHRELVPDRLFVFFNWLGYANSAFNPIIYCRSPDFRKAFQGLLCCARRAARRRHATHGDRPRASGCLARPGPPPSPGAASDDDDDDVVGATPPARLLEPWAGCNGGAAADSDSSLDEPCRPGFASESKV", "assay": "[3H]-DHA competition binding on β1AR with or without Nb80", "source_text": "Active state stabilizing Nanobodies that are cross-reactive to related receptors can be used as a tool to stabilize a conformational state of those related receptors. […] Using the PISA server (Krissinel & Henrick, 2007) and based on the crystal structure of the Nb80-β2AR complex, 30 β2AR AA residues were identified to interact with Nb80 in the β2AR-Nb80 interface. […] The remaining interface residues are lysines in β2AR and have been substituted by arginines in β1AR corresponding to conserved substitutions (shown in grey boxes in FIG. 17). It thus appears that both receptors share a very similar binding site for Nb80. Based on this analysis, we also measured the effect of Nb80 on the affinity of β1AR for the agonist isoproterenol and the inverse agonist […] (FIG. 18)."}, "[5]": {"target": "T2, β2AR (Homo sapiens, UniProt P07550)", "assay": "Temperature-induced aggregation of agonist-bound β2AR analyzed by SEC", "design": "made in house", "details": "isoproterenol 10 μM, 2:1 molar excess of Nb80, 10 minutes at increasing temperatures", "procedure": "(§1) The effect of conformational selective nanobodies on the thermostability and the subsequent aggregation of the β2AR receptor was analyzed using a fluorescent thermal stability assay (FIG. 13) and size exclusion chromatography (FIGS. 14A and 14B).\nWe also analyzed the effect of Nb80 on the thermal unfolding and aggregation of the agonist-bound receptor by size exclusion chromatography (SEC). For this experiment, dodecylmaltoside-solubilized receptor was pre-incubated with isoproterenol (10 μM) in the presence or absence of a 2:1 molar excess of Nb80 for 45 minutes at RT. Samples were next incubated for 10 minutes at increasing temperatures and subsequently analyzed by SEC (FIGS. 14A and 14B)."}, "[6]": {"target": "T2, β2AR", "assay": "Monobromobimane fluorescence of purified mBBr-labeled β2AR", "format": "biochemical", "design": "made in house", "details": "1 μM nanobody, β2AR bound to full agonist isoproterenol", "source_text": "To investigate the effect of nanobodies on movement of the cytoplasmic domain of TM6 we labeled purified β2AR at C265 with monobromobimane (mBB-β2AR). […] In mBB-β2AR, the addition of agonist together with G protein results in larger fluorescent changes than either agonist or G protein alone. This is compatible with the cooperative interactions observed in agonist competition binding assays (Yao et al. 2009).\nPurified β2AR was reacted with 1:1 equivalent of monobromobimane (mBBr, Invitrogen) in 100 mM NaCl, 20 mM HEPES, pH 7.5, 0.1% dodecyl maltoside and incubated overnight on ice in the dark. The fluorophore-labeled receptor was purified right before use by gel filtration on a desalting column equilibrated with the same buffer. […] All experiments were performed at 25° C. […] To determine the effect of nanobodies and ligands, three individual labeled protein samples were incubated with 1 μM nanobody or 10 μM Isoproterenol or both. Emission spectra of the samples were taken after 1 hour incubation."}, "[7]": {"target": "T2, β2AR", "details": "agonist competition binding, Sf9 membranes", "excerpt": "The IC50 values used for calculations of Ki values were obtained from means of pIC50 values determined by nonlinear regression analysis using Prism (GraphPad Software, San Diego, Calif.) and the s.e. interval from pIC50±s.e."}, "[8]": {"test_system": "β2AR", "assay": "Size exclusion chromatography of nanobody with purified agonist- or inverse agonist-bound β2AR", "format": "binding, human", "details": "20 μM β2AR bound to agonist or inverse agonist, 40 μM nanobody", "procedure": "The mixture was then analyzed by Size Exclusion Chromatography (SEC), which separates protein on the basis of size. Seven of the nanobodies bound to purified β2AR and migrated as a complex on SEC only in the presence of agonist and not an inverse agonist (an example is shown in FIG. 1, Panel a, FIGS. 3A, 3B, and FIG. 4).\nAgonist selective nanobodies were identified by size exclusion chromatography following incubation of 20 μM agonist or inverse agonist-(carazolol-) bound β2AR-365N for one hour at RT in the absence or presence of 40 μM nanobody."}, "[9]": {"target": "T2, β2AR", "assay": "[3H]-DHA competition binding on β2AR reconstituted in HDL particles, with or without Gs or Nb80", "design": "recombinant β2AR truncated at Gly365 (β2AR-365); made in house; host or cells: Sf9 insect cells", "details": "β2AR/HDL"}, "[10]": {"target": "T2, β2AR", "assay": "Fluorescent (CPM) thermal stability assay of detergent-solubilized agonist-bound β2AR", "design": "made in house", "procedure": "as §1\nThe fluorescent thermal stability assay makes use of the thiol-specific fluorochrome N-[4-(7-diethylamino-4-methyl-3-coumarinyl)phenyl]maleimide (CPM) to measure the chemical reactivity of the native cysteines embedded in the protein interior as a sensor for the overall integrity of the folder state of membrane proteins (Alexandrov et al. 2008). For the fluorescent thermal stability assay, detergent-solubilized receptor (in 0.1% dodecylmaltoside, 100 mM NaCl and 20 mM Hepes pH 7.5) was pre-incubated with isoproterenol (10 μM) in the presence or absence of a 2:1 molar excess of Nb80 for one hour at RT. Samples were then mixed with CPM fluorophore and incubated for two minutes at temperatures ranging from 10° C. to 94° C. and fluorescence emission was collected. […] Unfolding transitions could be described by a simple two-state model, including the native (folded) and the denaturated state, representing the lower and upper plateaus of the melting curves."}, "[11]": {"target": "T2, β2AR", "format": "binding", "details": "full-length β2AR membranes, Nb80 versus irrelevant nanobody"}, "[12]": {"test_system": "β2AR", "assay": "[3H]-DHA competition binding on β2AR reconstituted in HDL particles, with or without Gs or Nb80", "design": "species or system human", "details": "β2AR/HDL + Nb80 versus alone"}}, "note": "“Also recorded” adds a separate entry of the source."}
{"molecule": "NB80: β2AR-specific nanobody, SEQ ID NO:4; lead nanobody stabilizing the active state (protein, listed as Lama glama) VHH: QVQLQESGGGLVQAGGSLRLSCAASGSIFSINTMGWYRQAPGKQRELVAAIHSGGSTNYANSVKGRFTISRDNAANTVYLQMNSLKPEDTAVYYCNVKDYGAVLYEYDYWGQGTQVTVSS", "values": [{"measurement": "increase of isoproterenol affinity in the presence of Nb80", "setting": "[1]", "result": 60, "unit": "fold"}, {"measurement": "effect of Nb80 on affinity for the inverse agonist ICI-118,551", "setting": "[2]", "result": "does not increase the affinity"}, {"measurement": "effect of Nb80 on unrelated receptor", "setting": "[3]", "result": "No such effect"}, {"measurement": "effect of Nb80 on affinity of β1AR for CGP20712A", "setting": "[4]", "result": "does not change the affinity"}, {"measurement": "effect of Nb80 on affinity of β1AR for the agonist isoproterenol", "setting": "[4]", "result": "increased affinity"}, {"measurement": "effect on temperature-induced aggregation of agonist-bound receptor (SEC)", "setting": "[5]", "result": "protects the agonist-bound receptor against temperature-induced aggregation"}, {"measurement": "nanobody-induced change of mBBr fluorescence", "setting": "[6]", "result": "larger changes were observed when both agonist and nanobody were added together; also recorded: stabilizes a more active state of the β2AR"}, {"measurement": "enhancement of the affinity of β2AR for the agonist isoproterenol in the presence of nanobody", "setting": "[7]", "result": "two- to thirty-fold"}, {"measurement": "complex formation with β2AR on SEC", "setting": "[8]", "result": "β2AR-agonist-Nb80 complex formation"}, {"measurement": "effect of Nb80 on affinity for the inverse agonist ICI-118,551", "setting": "[9]", "result": "does not increase the affinity; also recorded: little effect"}, {"measurement": "apparent melting temperature for β2AR with Nb80", "setting": "[10]; DDM-solubilized isoproterenol-bound β2AR, 12.0° C. without Nb80", "result": 24, "unit": "°C"}, {"measurement": "increase of melting temperature (Tm) of the agonist-bound receptor", "setting": "[10]; isoproterenol 10 μM, 2:1 molar excess of Nb80", "result": 12, "unit": "°C"}, {"measurement": "effect of Nb80 on β2AR affinity for ligands", "setting": "[11]", "result": "increases β2AR affinity for agonists but not for antagonists"}, {"measurement": "increase of isoproterenol affinity in the presence of Nb80", "setting": "[12]", "result": 95, "unit": "fold"}]}
